Experiment [1] has as its target recombinant human CD38 his tagged (extracellular domain) (human) (UniProt P28907). Put plainly: Forte Bio BLI, IgG on AHQ sensors.
Experiment [2] addresses T1, recombinant human CD38 his tagged (extracellular domain) (human, UniProt P28907 43-300).
T1 construct: Bought from Sino Biological; also called rhCD38; rhCD38-his; not shown: Histidine tag
T1 sequence: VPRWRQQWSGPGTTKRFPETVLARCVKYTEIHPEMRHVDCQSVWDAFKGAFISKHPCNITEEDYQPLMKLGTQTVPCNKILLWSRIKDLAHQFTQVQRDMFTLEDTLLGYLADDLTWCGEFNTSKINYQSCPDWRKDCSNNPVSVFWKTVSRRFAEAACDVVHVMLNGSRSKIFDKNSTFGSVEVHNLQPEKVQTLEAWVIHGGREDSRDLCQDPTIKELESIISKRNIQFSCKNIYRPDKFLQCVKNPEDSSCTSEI
Put plainly: SPR, Biacore 2000, antibody captured by anti-human antibody, rhCD38-his as analyte. For orientation: In SPR one partner is held on a chip, and binding of the other changes the refractive index at the surface.

The target of experiment [3] is T2, human CD38 expressed on human cell lines (Daudi, Ramos, Raji, Jurkat) (human, UniProt P28907 1-300).
T2 construct: Endogenous CD38 of the cell lines; also called CD38 expressed on cell lines of human origin
T2 sequence: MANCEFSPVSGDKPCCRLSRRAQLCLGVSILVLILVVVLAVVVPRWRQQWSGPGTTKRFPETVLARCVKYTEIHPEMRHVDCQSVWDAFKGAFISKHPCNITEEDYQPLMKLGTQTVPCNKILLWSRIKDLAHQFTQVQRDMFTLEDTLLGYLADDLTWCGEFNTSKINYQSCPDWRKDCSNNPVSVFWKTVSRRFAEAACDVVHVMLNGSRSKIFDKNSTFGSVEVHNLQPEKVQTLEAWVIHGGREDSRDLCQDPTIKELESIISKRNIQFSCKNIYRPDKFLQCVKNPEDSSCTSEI
In words: flow cytometry on Daudi cells, secondary rabbit anti-human Fcg F(ab')2, MFI against log antibody concentration. (In general: In flow cytometry, cells or beads pass a laser one at a time.)
Procedure: (§1) Binding of anti-CD38 Antibodies to CD38-expressing cells: The candidate hits are evaluated by binding to lymphoblast like human cell lines, Ramos and Daudi. Binding to CD38 expressing human cell lines (Ramos and Daudi) was examined by staining test articles (anti-CD38 primary antibodies) with 20 μg/ml antibodies followed by semi-log dilution series (7-point) for 30 minutes on ice. This was followed by staining with a secondary antibody (rabbit anti-human Fcg F(ab′)2) concentration of 5 μg/ml for 30 minutes on ice. All samples were stained in triplicates. To minimize cross-linking induced cell death mediated by binding of the secondary antibody, cell lines were examined in staining cohorts of 4 test articles at a time. Live cells were gated using FSC vs SSC parameters by flow cytometry during sample acquisition. Mean fluorescence intensity (MFI) of stained cells were plotted on an XY chart, graphing MFI against the log of the concentration, and the data fit to a non-linear regression curve from which the EC50 is calculated.

Experiment [4] deals with T2, human CD38 expressed on human cell …. Put plainly: flow cytometry on Ramos cells, secondary rabbit anti-human Fcg F(ab')2, MFI against log antibody concentration.
Procedure: as §1
In experiment [5] the target is T1, recombinant human CD38 his tagged …. In words: BLI (Octet / Forte Bio), IgG against monovalent human CD38-HIS (affinity).
Experiment [6] shares this target. Put plainly: BLI (Octet), avidity format: rhCD38-his loaded on Ni-NTA sensor, antibody in solution. (In general: In BLI a coated tip is dipped into the sample, and binding shifts an interference pattern.)
Procedure: Avidity binding measurements of anti-CD38 Antibodies: Ni-NTA sensors were equilibrated off-line in assay buffer for 30 minutes and then monitored on-line for 60 seconds for baseline establishment. […] Then the antibody was associated at different concentrations (as described in FIGS. 8) for 50 min. Afterwards they were transferred to assay buffer for 30 minutes for off-rate measurement. Kinetics data were fit using a 1:1 binding model in the data analysis software provided by ForteBio.

In the case of “IB4, reference monoclonal agonistic mouse anti-human CD38 antibody”, the Kd in experiment [1] is 9 nM.

B1: aCD38-a-309 human IgG1 (aCD38-a-309-hIgG1) (antibody, V domains shown)
VH: EVQLVESGGGLVKPGGSLRLSCAASGFTFSSYSMNWVRQAPGKGLEWVSSISSSSNYIYYADSVKGRFTISRDNAKNSLYLQMNSLRAEDTAVYYCAREPIYTSGWPFDIWGQGTMVIVSS
VL: EIVLTQSPATLSLSPGERATLSCRASQSVSSYLAWYQQKPGQAPRLLIYDASNRATGIPARFSGSGSGTDFTLTISSLEPEDFAVYYCQQHVNFPWTFGGGTKVEIK
notes: They are assigned here because the control is a human IgG1 isotype; not shown: human IgG1 heavy chain constant region, P01857; human kappa light chain constant region, P01834
As for B1, in experiment [2], the Kd is 0.65 nM. In addition, the concentration for a half-maximal effect (EC50 (read off the curve)) (commonly the concentration that produces a half-maximal response) in experiment [3] is ~0.2 µg/mL; in experiment [4], ~0.4 µg/mL.

B2: aCD38-a-309-IgG4 (antibody, V domains shown)
VH: EVQLVESGGGLVKPGGSLRLSCAASGFTFSSYSMNWVRQAPGKGLEWVSSISSSSNYIYYADSVKGRFTISRDNAKNSLYLQMNSLRAEDTAVYYCAREPIYTSGWPFDIWGQGTMVIVSS
VL: EIVLTQSPATLSLSPGERATLSCRASQSVSSYLAWYQQKPGQAPRLLIYDASNRATGIPARFSGSGSGTDFTLTISSLEPEDFAVYYCQQHVNFPWTFGGGTKVEIK
Consider B2, for which the values for the Kd in experiment [5] and in experiment [6] were 32.9 nM and 0.134 nM, respectively.

(Values after patent US20200362050A1 (BLACK BELT THERAPEUTICS, published 2020).)
